Results on 72 sequences are retold here after the supplement of paper PMC10567573.

± gives the standard deviation.

This data set in a line: protein stability index of a GFP-peptide fusion (GPS, HEK-293T) (PSI 1-6); higher = more stable.
[1] abbreviates: treatment: DMSO, c terminus: a fixed tail appended.
Setting [2] is: treatment: MLN4924 1 uM, 8 h, c terminus: a fixed tail appended.
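Further: 24-mer peptide tiles fused after GFP, lentivirally expressed, FACS-sorted into six equal bins by GFP/DsRed ratio, decoded by Illumina sequencing, PSI is the read-weighted mean bin number.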

As for LVAFVLLNECVGTAYWALAGSIGG [SLC22A15], the protein stability index by setting is: under setting [1], 3.05 ± 0.34; under setting [2], 2.86 ± 0.38.
Consider MGPYNPDTCPEVGFFDVLGNDRRR [ACBD3], for which the protein stability index was 4.08 ± 0.37 under setting [1] and 4.02 ± 0.35 under setting [2].
Consider SKLEERFGPDSKSSALACTLPTLP [NCF4], for which the protein stability index is 4.04 ± 0.19 under setting [1] and 4.21 ± 0.17 under setting [2].
With IRRAYPDANLLNDRVLRAMLKAEE [CCND1], the protein stability index by setting is: under setting [1], 2.96 ± 0.24; under setting [2], 3.52 ± 0.47.
AEFIESGQYRANEGTSSIVMEIQK [TAF7L]: the protein stability index is 4.23 ± 0.24 under setting [1] and 4.45 ± 0.32 under setting [2].
For DLNGAQIKLREYEAALNSKDAALA [LMNB1], the protein stability index under setting [1] came out at 3.5 ± 0.18 and the protein stability index under setting [2] turned out to be 3.71 ± 0.39.
On to VRLAARQEDAPMIEPLVPEEKMET [EPB41L3], for which the protein stability index turned out to be 4.9 ± 0.16 under setting [1] and 5.17 ± 0.24 under setting [2].
With ALGNLVEGMDFHRFYFENLLAKNS [CAMK2B], the protein stability index was found to be 2.19 ± 0.24 under setting [1] and 2.35 ± 0.079 under setting [2].
For ASAPTTPCQKSPNGVRVFPPAMPP [TRIM9], in that order: 4.14 ± 0.25 and 4.2 ± 0.17.
For ILTLTMISLFFLIIYMGSFMLMLL [CDS1], in that order: 2.4 ± 0.65 and 2.35 ± 0.39.
For GSSYPTTTISYLPHAPPFAGGHPA [JUNB], the protein stability index reads like this: under setting [1], 3.12 ± 0.14; under setting [2], 3.09 ± 0.13.
With EELYKEIDGVATTRYSVAGLSPYS [PTPRD], the protein stability index was 3.14 ± 0.18 under setting [1] and 3.36 ± 0.22 under setting [2].
As to DINLSVRKLLNRHNIVFGDYTWTE [TRIP13], the protein stability index reads like this: under setting [1], 2.28 ± 0.29; under setting [2], 2.22 ± 0.4.
As for AIVSCTPVHLIDKLPLPVTIKSHL [RAB40C], the protein stability index was determined as 2.18 ± 0.24 under setting [1] and 2.08 ± 0.19 under setting [2].
Regarding VGQQVHNLLLTYLIVTSLLLLPGL [ARL6IP1], the protein stability index by setting is: under setting [1], 3.27 ± 0.26; under setting [2], 3.46 ± 0.57.
For LCCAFSTDGSVLAAGTHDGSVYFW [WSB1], the protein stability index is, setting by setting: under setting [1], 2.78 ± 0.78; under setting [2], 2.45 ± 0.78.
For the sequence SDNLLVILKRKWWKYILLGLADVE [SLC35F2], the protein stability index came out at 2.38 ± 0.21 under setting [1] and 2.31 ± 0.73 under setting [2].
Regarding ETTRNTTGIEESTDGMILGPEDLS [LARP4], the protein stability index reads like this: under setting [1], 5.47 ± 0.4; under setting [2], 5.43 ± 0.28.
Regarding DIRAKKIASIADVCESMKEQLLVL [HNF4A], the protein stability index reads like this: under setting [1], 2.5 ± 0.35; under setting [2], 2.26 ± 0.22.
GQVTPRGLRLRLPRRESLLRGLCR [C6orf223]: the protein stability index reads like this: under setting [1], 3.24 ± 0.33; under setting [2], 3.23 ± 0.34.
In the case of LDKSTTGVSEILLKTQMKMSLKCL [FEM1B], the protein stability index worked out at 2.6 ± 0.31 under setting [1] and 2.17 ± 0.26 under setting [2].
For LYKSLKTLSAELVPWLNLKKQDEN [CEP70], in that order: 2.37 ± 0.49 and 2.03 ± 0.37.
Regarding QSGGRLRRPVNVPLDMFSEEIKFY [KCNA1], the protein stability index is, setting by setting: under setting [1], 2.52 ± 0.28; under setting [2], 2.75 ± 0.28.
With CPSSPKQIHLDVDNDRTTPSDLDS [DLC1], the protein stability index was 5.52 ± 0.1 under setting [1] and 5.55 ± 0.14 under setting [2].
Regarding HWPQGPTGPPGPPGPMGPPGPPGP [EMID1], the protein stability index reads like this: under setting [1], 4.66 ± 0.22; under setting [2], 4.73 ± 0.45.
Consider TYQVHDYLRSKLCSLYENDCIFDK [PPP2R2C], for which the protein stability index runs as follows: under setting [1], 2.22 ± 0.26; under setting [2], 2.32 ± 0.48.
Regarding DYSPYYKTIEELRDKILTATIENN [KRT13], the protein stability index reads like this: under setting [1], 3.17 ± 0.15; under setting [2], 3.11 ± 0.16.
For EASGYVDRDMFFKICESLNVPVDD [EFHC1], in that order: 3.95 ± 0.29 and 4.17 ± 0.44.
Turning to YLAHASDVLENAFAPLLDEQYDLA [GOLPH3], the protein stability index reads like this: under setting [1], 2.83 ± 0.21; under setting [2], 3.12 ± 0.36.
Consider MTDGILGKAATMEIPIHGNGEARQ [ARFIP2], for which the protein stability index is, setting by setting: under setting [1], 4.58 ± 0.16; under setting [2], 4.57 ± 0.13.
As for SCDDLMGGGGLHSVGTYIIDLLTF [GFOD1], the protein stability index reads like this: under setting [1], 2.75 ± 0.72; under setting [2], 2.41 ± 0.29.
For the sequence QGQAKTPDSMFLAMLAVVSCASIG [CDK11A], the protein stability index reads like this: under setting [1], 3.36 ± 0.59; under setting [2], 3.11 ± 0.63.
For EQQHYFNTPFQLSIAPPEAEGVVL [PPTC7], in that order: 3.29 ± 0.38 and 3.56 ± 0.43.
Consider IETEDQIDKKPVSEKTDESDTIPY [MIA2], for which the protein stability index under setting [1] was 5.53 ± 0.3 and the protein stability index under setting [2] came out at 5.3 ± 0.36.
With PPLWAASAAGHLKVVQSLLNHGAS [FEM1C], the protein stability index is, setting by setting: under setting [1], 2.58 ± 0.43; under setting [2], 2.76 ± 0.23.
Turning to LYLEEIADRIIEVDMECQTDAFLD [RSPH3], the protein stability index runs as follows: under setting [1], 2.44 ± 0.74; under setting [2], 2.59 ± 0.28.
For the sequence KSIDPVLMAPTCVFLASKVEEFGV [CCNC], the protein stability index is, setting by setting: under setting [1], 1.92 ± 0.11; under setting [2], 2.05 ± 0.34.
Consider LGCYAVYSLLYLEHKGWYSWVLSM [CLPTM1], for which the protein stability index was found to be 3.04 ± 0.42 under setting [1] and 3.27 ± 0.65 under setting [2].
For LMFLDICSELNKLCQHFEAVHSGT [SPACA9], in that order: 2.67 ± 0.72 and 2.4 ± 0.29.
As for ATIHGAIRLVCSRGNRLKTTSWGL [SCNN1D], the protein stability index under setting [1] is 2.46 ± 0.7 and the protein stability index under setting [2] stood at 2.18 ± 0.24.
For HYMEENLMDGGDLPSVTDIRRPRL [PLK2], in that order: 4.15 ± 0.16 and 4.22 ± 0.13.
The sequence RLRVELECEEGELSFYDAERHCHL [TRIM35] returned a protein stability index under setting [1] of 3.66 ± 0.17 and a protein stability index under setting [2] of 3.75 ± 0.075.
On to NLLLTYLIVTSLLLLPGLNQHGII [ARL6IP1], for which the protein stability index came to 3.32 ± 0.47 under setting [1] and 3.25 ± 0.13 under setting [2].
With ISRDRLSSYYKFKLTREVLSLFVQ [ZER1], the protein stability index under setting [1] was determined as 2.11 ± 0.52 and the protein stability index under setting [2] turned out to be 2.13 ± 0.29.
With PTGPRRGRDELGGGRRPGTSPALL [CDKN1A], the protein stability index reads like this: under setting [1], 4.624 ± 0.031; under setting [2], 4.53 ± 0.061.
In the case of PRIEASKVLLCHGELRSKSGHKLY [NET1], the protein stability index by setting is: under setting [1], 2.64 ± 0.46; under setting [2], 2.81 ± 0.34.
With KRKLGLTALVGLRQNLSKSWLDVQ [TPD52L3], the protein stability index reads like this: under setting [1], 2.17 ± 0.71; under setting [2], 2.16 ± 0.42.
In the case of YKLVGSPPWKEAFRQRCLERMRNS [RPAIN], the protein stability index is, setting by setting: under setting [1], 2.74 ± 0.32; under setting [2], 2.98 ± 0.52.
With YKEKFGITDLPRIDVSKREPPPVK [EFHC1], the protein stability index is, setting by setting: under setting [1], 3.67 ± 0.38; under setting [2], 4.04 ± 0.23.
With KEEEEEDCSEEYLERQLQAEFIES [TAF7L], the protein stability index runs as follows: under setting [1], 5.36 ± 0.36; under setting [2], 5.56 ± 0.12.
With QNVHFHRSGSPTVPIKPPCIPNGK [CAMK2D], the protein stability index by setting is: under setting [1], 3.85 ± 0.26; under setting [2], 4.05 ± 0.2.
As to SRVKGSAPEIDPSSDGSNFGWETK [KMT2E], the protein stability index turned out to be 4.83 ± 0.4 under setting [1] and 4.83 ± 0.15 under setting [2].
With MPIPEDLSTTSGGQQSSKSDRVVA [IKZF1], the protein stability index runs as follows: under setting [1], 5.44 ± 0.16; under setting [2], 5.39 ± 0.2.
In the case of EDSSRDIREALHELLCCTNVSTKE [INTS4], the protein stability index under setting [1] was 3.75 ± 0.31 and the protein stability index under setting [2] was determined as 3.98 ± 0.25.
Take SSGEDKENDGFVFKMPWKPTHPSS [CDC25B]: the protein stability index reads like this: under setting [1], 3.92 ± 0.22; under setting [2], 4.16 ± 0.25.
Consider GPPRAPGRSGWPAGGAPGSPIPSP [HES6], for which the protein stability index by setting is: under setting [1], 4.32 ± 0.18; under setting [2], 4.26 ± 0.2.
For the sequence GKEVVKQLEEGLKDTDLARVRRFQ [M1AP], the protein stability index reads like this: under setting [1], 4.58 ± 0.35; under setting [2], 4.62 ± 0.2.
Consider GSAVARAVCKATTHEVMGPKKKHL [SNAP91], for which the protein stability index came out at 4.58 ± 0.19 under setting [1] and 4.83 ± 0.17 under setting [2].
Take VGITVLNLCALSVDRYRAVASWSR [EDNRA]: the protein stability index under setting [1] came out at 2.86 ± 0.66 and the protein stability index under setting [2] is 2.87 ± 0.6.
Regarding FLSLEASTETLVHVSDEDNNADLC [DLC1], the protein stability index by setting is: under setting [1], 5.11 ± 0.27; under setting [2], 5.2 ± 0.12.
Turning to SLNSTFGSTNLTGLFFPPQLNGTA [NFE2L1], the protein stability index is, setting by setting: under setting [1], 2.52 ± 0.35; under setting [2], 2.92 ± 0.38.
SRRVIAANNRILAERIAKEIQVIP [IMPA1] had a protein stability index under setting [1] of 2.46 ± 0.34 and a protein stability index under setting [2] of 2.69 ± 0.12.
As to YWGSPEEQSLLSRWNPWSTEVPYA [TPRG1], the protein stability index is 2.09 ± 0.14 under setting [1] and 2.23 ± 0.28 under setting [2].
ELKKAAYDIEVNTRRAQADLAYQL [FLOT1]: the protein stability index by setting is: under setting [1], 3.2 ± 0.32; under setting [2], 3.3 ± 0.32.
Consider DNPANRSLVLPWSFPLEWAPQNLT [TOR1AIP2], for which the protein stability index was found to be 2.87 ± 0.23 under setting [1] and 2.79 ± 0.17 under setting [2].
For DFFIVGCEVIFCVFIFYYVVEEIL [PKD2L1], in that order: 1.92 ± 0.47 and 2 ± 0.3.
For the sequence LCPCLRSGIGSSQALGPSPPLFG [MYCL], the protein stability index is 2.54 ± 0.84 (treatment: DMSO, c terminus: native) and 2.11 ± 0.26 (treatment: MLN4924 1 uM, 8 h, c terminus: native).
Sequence PYKCVQPDCGKAFVSRYKLMRHMA [PLAGL1] registered a protein stability index under setting [1] of 2.23 ± 0.31 and a protein stability index under setting [2] of 2.08 ± 0.21.
With GYNLTSISESMAACTRSLLGDPPP [HDAC6], the protein stability index by setting is: under setting [1], 3.52 ± 0.38; under setting [2], 3.4 ± 0.2.
For MDHPSREKDERQRTTKPMAQRSAH [CSNK1G1], in that order: 5.34 ± 0.22 and 5.09 ± 0.57.
For RHWHRPVLMAVSVHSERKLLPLVT [SCNN1D], the protein stability index reads like this: under setting [1], 2.23 ± 0.37; under setting [2], 2.11 ± 0.26.
For DSKIAFLMQLQDIQYLTENIWASQ [IQUB], in that order: 2.9 ± 0.64 and 2.46 ± 0.62.
